The values below are quoted from earlier work in paper PMC3496018.

Data set [1] deals with LRP6 (Homo sapiens) (UniProt O75581).
Data set [2] addresses Syndecan-4 (Homo sapiens) (UniProt P31431).
UniProt P31431, sequence (P31431 19-145): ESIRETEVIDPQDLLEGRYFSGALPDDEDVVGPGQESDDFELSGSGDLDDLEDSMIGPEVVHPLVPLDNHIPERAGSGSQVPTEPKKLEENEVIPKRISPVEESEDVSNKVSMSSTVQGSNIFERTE

UniProt O75581, sequence (O75581 20-1370): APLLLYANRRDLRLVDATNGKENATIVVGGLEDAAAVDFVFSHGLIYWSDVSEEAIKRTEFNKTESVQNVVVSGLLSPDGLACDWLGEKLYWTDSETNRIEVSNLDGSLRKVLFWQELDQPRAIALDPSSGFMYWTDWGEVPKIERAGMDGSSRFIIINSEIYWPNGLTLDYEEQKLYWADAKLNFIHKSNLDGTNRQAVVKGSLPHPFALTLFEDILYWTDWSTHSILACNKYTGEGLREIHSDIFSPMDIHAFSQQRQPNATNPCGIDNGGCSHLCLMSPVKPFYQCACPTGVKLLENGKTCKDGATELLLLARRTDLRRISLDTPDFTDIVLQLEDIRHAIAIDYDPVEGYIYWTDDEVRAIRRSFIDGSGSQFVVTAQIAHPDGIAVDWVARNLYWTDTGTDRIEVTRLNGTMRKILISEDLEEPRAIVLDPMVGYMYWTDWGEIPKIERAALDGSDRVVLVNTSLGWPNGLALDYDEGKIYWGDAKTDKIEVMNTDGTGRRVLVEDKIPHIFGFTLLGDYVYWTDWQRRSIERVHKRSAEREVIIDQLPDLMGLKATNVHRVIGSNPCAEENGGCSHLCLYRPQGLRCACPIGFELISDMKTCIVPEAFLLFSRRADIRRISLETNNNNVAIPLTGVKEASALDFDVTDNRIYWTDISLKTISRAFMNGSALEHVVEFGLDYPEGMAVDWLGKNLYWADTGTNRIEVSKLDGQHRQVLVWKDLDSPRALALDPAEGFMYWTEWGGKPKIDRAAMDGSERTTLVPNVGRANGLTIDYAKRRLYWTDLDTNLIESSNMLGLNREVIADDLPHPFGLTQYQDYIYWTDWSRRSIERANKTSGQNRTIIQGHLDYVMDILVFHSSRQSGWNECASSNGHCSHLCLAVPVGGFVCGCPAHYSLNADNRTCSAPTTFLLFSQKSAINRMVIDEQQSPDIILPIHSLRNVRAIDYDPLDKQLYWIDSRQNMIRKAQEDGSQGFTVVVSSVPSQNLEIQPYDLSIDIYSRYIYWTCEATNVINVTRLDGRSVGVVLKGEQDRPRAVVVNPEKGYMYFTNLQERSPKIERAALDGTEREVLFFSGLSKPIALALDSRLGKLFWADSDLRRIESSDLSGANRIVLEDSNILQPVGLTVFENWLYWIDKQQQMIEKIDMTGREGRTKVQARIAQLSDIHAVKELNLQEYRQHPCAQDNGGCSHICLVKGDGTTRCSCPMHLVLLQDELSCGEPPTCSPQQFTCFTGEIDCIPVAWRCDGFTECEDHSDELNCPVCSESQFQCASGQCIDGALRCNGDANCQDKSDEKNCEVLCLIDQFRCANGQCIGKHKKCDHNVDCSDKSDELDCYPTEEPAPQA

As to RSPO1 (from UniProt Q2MKA7), the Kd in data set [1] was 1.2 nM.
In the case of RSPO3 (from UniProt Q9BXY4), the Kd in data set [2] is 0.88 nM.

Broadly, the Kd is the equilibrium constant for the complex coming apart.
